Test results taken from patent publication US20050164308A1, “Beta-lactamase CD4+ T-cell epitopes” (priority 2003, published 2005).
Where a chain is given by its changes, count along the chain named. Names may count otherwise.

B1: pCD1.1: epitope-modified beta-lactamase K21A/S324A (protein)
chain: TPVSEKQLAEVVANTITPLMAAQSVPGMAVAVIYQGKPHYYTFGKADIAANKPVTPQTLFELGSISKTFTGVLGGDAIARGEISLDDAVTRYWPQLTGKQWQGIRMLDLATYTAGGLPLQVPDEVTDNASLLRFYQNWQPQWKPGTTRLYANASIGLFGALAVKPSGMPYEQAMTTRVLKPLKLDHTWINVPKAEEAHYAWGYRDGKAVRVSPGMLDAQAYGVKTNVQDMANWVMANMAPENVADASLKQGIALAQSRYWRIGSMYQGLGWEMLNWPVEANTVVEGSDSKVALAPLPVAEVNPPAPPVKASWVHKTGSTGGFGAYVAFIPEKQIGIVMLANTSYPNPARVEAAYHILEALQ
B2: BLA: beta-lactamase precursor (cephalosporinase) from Enterobacter cloacae, GenBank Accession No. P05364, SEQ ID NO:1 (protein, listed as Enterobacter cloacae)
chain: B1 chain with A21K, A324S

Tests used:
[1] = system: PBMCs; assay: PBMC proliferation assay; type: cell-based, human; conditions: 26 donors
Experimental: The blood samples used in these experiments were the same as described above (i.e., before Example 1). The PBMCs were separated using Lymphoprep, as known in the art. The PBMCs were washed in PBS and counted using a Cell Dyn® 3700 blood analyzer (Abbott). The cell numbers and differentials were recorded. The PBMCs were resuspended to 4×10^6 cells/ml, in a solution of heat-inactivated human AB serum, RPMI 1640, pen/strep, glutamine, and 2-ME. Then, 2 mls per well were plated into 24-well plates. Two wells were used as no-enzyme controls. Then, the unmodified beta-lactamase and modified beta-lactamases were added to the wells at a concentrations of 10 ug/ml, 20 ug/ml, and 40 ug/ml. The epitope-modified beta-lactamases tested were K21A/S324A (designated as “pCD1.1”) and K21A/S324A/L149S (designated as “pCD08.3”). The K21A mutation corresponds to SEQ ID NO:10, while the S324A mutation corresponds to SEQ ID NO:48, and the L149S mutation corresponds to SEQ ID NO:84. The S324 variant is in epitope #107, while K21A is in epitope #6, and L149S is in epitope #49. […] These plates were incubated for 6 hours, the cells harvested and counted. […] SI values were calculated by dividing the average for each set of eight wells for each sample by the average CPM for the control well. The data were analyzed by creating a dataset representing the highest SI value achieved for each donor and each enzyme. […]

[2] = system: mouse splenocytes; assay: Proliferative response of splenocytes from immunized mice to BLA peptides; type: in vivo, CB6F1 mice; conditions: mice immunized i.p. 20 μg in alum, days 1, 7, 15; tested day 19
Experimental: (§1) In this Example, experiments conducted to test the reduced immunogenicity of pCD1.1 in vivo are described. In these experiments, CB6F1 mice were immunized intraperitoneally with 20 μg of either wild-type BLA, or the CD1.1 protein in alum per mouse, as known in the art. Mice were immunized on days 1, 7, and 15 (i.e., d=1, d=7 and d=15). Splenocytes were tested for reactivity with BLA peptides on day 19. […] This response correlates with one of the human defined epitopes.

[3] = system: BLA-specific IgG1 antibody; assay: Antigen-specific ELISA on serum of thrice-immunized mice; type: in vivo, CB6F1 mice; conditions: BLA or CD1.1 as plate coating
Experimental: as §1
In addition, serum samples were taken from the thrice-immunized mice and an antigen-specific ELISA was performed (FIG. 16). Mice immunized with BLA produced robust levels of anti-BLA IgG1 antibody. […] ELISA assays were performed using both BLA and CD1.1 as the plate-coating reagent, with identical results.

[4] = system: mouse splenocytes; assay: Proliferative response of splenocytes from immunized mice to whole protein BLA or CD1.1; type: in vivo, CB6F1 mice; conditions: mice immunized with the labelled protein; restimulated with BLA or CD1.1
Experimental: as §1
Splenocytes from immunized mice were tested in vitro for their proliferative response to whole protein BLA or CD1.1. […] However, it is not intended that the present invention be limited to any particular mechanism.

Molecule | average proliferative response (SI) compared to wild-type beta-lactamase ([1]; 10, 20, 40 ug/ml, highest SI per donor) | percent of responders compared to wild-type beta-lactamase ([1]; responder if highest SI > 1.99) | splenocyte proliferative response to the peptide 107 region [2] | splenocyte proliferative response to the peptide 114 region [2] | anti-BLA IgG1 antibody level [3] | in vitro proliferative response of immunized mouse splenocytes to whole protein [4]
B1 | less proliferation | fewer donors | no longer responded | no longer responded | did not produce significant levels | unable to respond significantly
B2 |  |  | respond strongly | Responses were also noted | robust levels | increased
